Results: patent US7655771B1, “Polymorphisms in the human cyp3a4 and cyp3a7 genes and their use in diagnostic and therapeutic applications” (PGx Health, LLC, priority 1999, dated 2010)
Where “and” joins values, the source holds several entries; their conditions need not be identical. Equal values may be shown once. Marks after values point to notes of the source that are not given here.

Legend:
CYP3A4 [1] = experiment: Testosterone hydroxylase activity of wild-type and mutant CYP3A4 proteins (reconstituted with NADPH-cytochrome P450 reductase and cytochrome b5); format: biochemical, human
Method: (§1) Mutants were expressed in E. coli TOPP3 cells. Cultures of each strain were started from single colonies in 2-ml of LB media containing ampicillin (50 μg/ml) and tetracycline (15 μg/ml) and grown overnight at 37° C. with shaking. Larger, 20-ml cultures of each sample were inoculated and grown as described for the 2-ml cultures. Starter cultures (15 ml) were inoculated into 250-ml of TB media containing ampicillin (50 μg/ml) and grown 2-3 hr at 37° C. at 250 rpm. δ-aminolevulinic acid (80 mg/L) and IPTG (1 mM) were added and the cultures grown 72 hr at 30° C. at 190 rpm. The cells were harvested, sonicated and CHAPS solubilized, and the protein was purified on Talon Metal Affinity resin from Clontech (Palo Alto, Calif.). Final P450 content was measured by reduced CO difference spectra (Omura, J Biol Chem 239 (1964), 2370-2378), and each protein was visualized on an 8.5% SDS PAGE gel stained with Coomassie blue. Western Blot analysis of CYP3A4 wild-type, M2, M5 and M7 was performed by resolving 1 pmol of 3A4 wildtype and M5, and 8 μl of M2 and M7 total protein sample on an 8.5% SDS PAGE gel. The samples were then transferred to nitrocellulose and probed with an anti-3A12 polyclonal antibody known to cross-react with CYP3A4 (Ciaccio, Arch Biochem Biophys 271 (1989), 284-99).
(§2) Following the reconstitution with NADPH-cytochrome P450 reductase and cytochrome b5, the catalytical activities of M1, M4, M5 and M6 variants were measured using testosterone, progesterone and 7-BFC as substrates (Tables 5-7).

CYP3A4 [2] = experiment: Progesterone hydroxylase activity of wild-type and mutant CYP3A4 proteins; format: biochemical, human
Method: as §1, §2

CYP3A4 [3] = biological target: T1, CYP3A4 (Homo sapiens, UniProt P08684, D174H); experiment: as above; format: biochemical; conditions: lower steroid concentration
T1 construct: made in house; host or cells: E. coli TOPP3
T1 sequence (P08684 2-503 D174H): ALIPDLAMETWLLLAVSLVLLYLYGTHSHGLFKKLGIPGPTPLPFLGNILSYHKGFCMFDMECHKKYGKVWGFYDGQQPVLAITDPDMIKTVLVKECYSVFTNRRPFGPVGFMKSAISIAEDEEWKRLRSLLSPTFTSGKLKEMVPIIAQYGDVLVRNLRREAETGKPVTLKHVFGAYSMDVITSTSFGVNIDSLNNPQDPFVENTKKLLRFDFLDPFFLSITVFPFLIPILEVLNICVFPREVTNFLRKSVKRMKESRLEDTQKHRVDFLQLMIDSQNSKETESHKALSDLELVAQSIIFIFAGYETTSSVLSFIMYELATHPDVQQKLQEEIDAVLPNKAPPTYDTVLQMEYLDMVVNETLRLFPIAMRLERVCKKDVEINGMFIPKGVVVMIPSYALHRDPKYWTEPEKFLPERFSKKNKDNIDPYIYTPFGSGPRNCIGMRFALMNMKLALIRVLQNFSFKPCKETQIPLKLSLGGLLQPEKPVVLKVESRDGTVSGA
Method: as §1, §2

CYP3A4 [4] = experiment: 7-Benzyloxy-4-(trifluoromethyl)coumarin (7-BFC) debenzylase activity of wild-type and mutant CYP3A4 proteins; format: biochemical, human; conditions: for 7-BFC debenzylase activity, 7-hydroxy-4-(trifluoromethyl)coumarin: substrate 7-BFC
Method: as §1, §2

CYP3A4 [5] = experiment: Western blot with anti-CYP3A12 polyclonal antibody; set-up: species or system human
Method: FIG. 7: Immunoblot of wild-type CYP3A4 (3A4), R130Q (M2), T363M (M5), and P416L (M7). P450 (1 pmol) was loaded into each lane, transferred to nitrocellulose, and probed with anti-3A12 IgG as described in Materials and Methods.
as §1
The effect of the protein variants on the expression level and catalytical activity of CYP3A4 was investigated using a bacterial CYP3A4 expression system. Sequence variants were introduced into the pSE3A4H expression vector (Harlow, J Biol Chem 272 (1997), 5396-402) which encodes for a CYP3A4 protein identical to that found in most Caucasians. […] Mutants M1-M8 were expressed in E. coli as described in Example 5, the expression of the CYP3A4 holoenzyme assessed by measuring reduced CO difference spectra, and the protein purified. […]

CYP3A4 [6] = biological target: T2, CYP3A4 (Homo sapiens, UniProt P08684, T363M); experiment: Testosterone hydroxylase activity of wild-type and mutant CYP3A4 proteins (reconstituted with NADPH-cytochrome P450 reductase and cytochrome b5); format: biochemical; conditions: Table 5
T2 construct: made in house; host or cells: E. coli TOPP3
T2 sequence (P08684 2-503 T363M): as the sequence (P08684 2-503 D174H) above, with H173D, T362M counted along it
Method: as §1, §2

CYP3A4 holoenzyme = experiment: Expression of CYP3A4 holoenzyme in E. coli, reduced CO difference spectra; set-up: species or system human
Method: as §1
The effect of the protein variants on the expression level and catalytical activity of CYP3A4 was investigated using a bacterial CYP3A4 expression system. Sequence variants were introduced into the pSE3A4H expression vector (Harlow, J Biol Chem 272 (1997), 5396-402) which encodes for a CYP3A4 protein identical to that found in most Caucasians. No other, unwanted mutations were introduced into the CYP3A4 insert or the promoter driving its expression as confirmed by sequencing. Mutants M1-M8 were expressed in E. coli as described in Example 5, the expression of the CYP3A4 holoenzyme assessed by measuring reduced CO difference spectra, and the protein purified. All but M2, M5 and M7 mutants were detectable at levels similar to CYP3A4. […] The expression of M2, M5, and M7 was further investigated by Western Blotting using an anti-CYP3A12 polyclonal antibody known to cross-react with CYP3A4 (Ciaccio, Arch Biochem Biophys 271 (1989), 284-99) as described in Example 5.

CYP3A4 [7] = biological target: T2, CYP3A4; experiment: Progesterone hydroxylase activity of wild-type and mutant CYP3A4 proteins; format: biochemical; conditions: Table 6
Method: as §1, §2

CYP3A4 [8] = biological target: T2, CYP3A4; experiment: 7-Benzyloxy-4-(trifluoromethyl)coumarin (7-BFC) debenzylase activity of wild-type and mutant CYP3A4 proteins; format: biochemical; conditions: Table 7
Method: as §1, §2

Substance | Testosterone hydroxylase metabolite profile compared with wild-type CYP3A4 (CYP3A4 [1]) | Testosterone hydroxylase activity, 2β-OH (CYP3A4 [1]; 25 μM testosterone) | Testosterone hydroxylase activity, 6β-OH (CYP3A4 [1]; 25 μM testosterone) | Testosterone hydroxylase activity, 15β-OH (CYP3A4 [1]; 25 μM testosterone) | Testosterone hydroxylase activity, 2β-OH (CYP3A4 [1]; 400 μM testosterone) | Testosterone hydroxylase activity, 6β-OH (CYP3A4 [1]; 400 μM testosterone) | Testosterone hydroxylase activity, 15β-OH (CYP3A4 [1]; 400 μM testosterone) | Progesterone hydroxylase activity, 6β-OH (CYP3A4 [2]; 25 μM progesterone) | Progesterone hydroxylase activity, 16α-OH (CYP3A4 [2]; 25 μM progesterone) | Progesterone hydroxylase 6β/16α ratio (CYP3A4 [2]; 150 μM progesterone) | Progesterone hydroxylase activity, 6β-OH (CYP3A4 [2]; 150 μM progesterone) | Progesterone hydroxylase activity, 16α-OH (CYP3A4 [2]; 150 μM progesterone) | 7-BFC debenzylase activity, 7-hydroxy-4-(trifluoromethyl)coumarin (CYP3A4 [4]) | Progesterone hydroxylase 6β/16α ratio (CYP3A4 [2]; 25 μM progesterone) | further results
M4: CYP3A4 protein variant D174H (g.14304G>C, exon 6) [Mutant M4] | Neither M1 nor M4 mutant displayed alterations | <0.1, <0.1 nmol product/min/nmol protein | 4.4 nmol product/min/nmol protein and 3.9 nmol product/min/nmol protein | 0.1, 0.1 nmol product/min/nmol protein | 5.3 nmol product/min/nmol protein and 5.6 nmol product/min/nmol protein | 32.4 nmol product/min/nmol protein and 29.8 nmol product/min/nmol protein | 1.3 nmol product/min/nmol protein and 0.9 nmol product/min/nmol protein | 5.5 nmol product/min/nmol protein and 5.4 nmol product/min/nmol protein | 0.5, 0.5 nmol product/min/nmol protein | 5.5 and 5.9 | 21.4 nmol product/min/nmol protein and 18.4 nmol product/min/nmol protein | 3.9 nmol product/min/nmol protein and 3.1 nmol product/min/nmol protein | 2.3 nmol product/min/nmol protein and 1.9 nmol product/min/nmol protein |  | Testosterone hydroxylase activity relative to wild-type CYP3A4 (CYP3A4 [1]; 25 μM testosterone (lower steroid concentration)): < 50%; Progesterone (steroid) hydroxylase metabolite profile compared with wild-type CYP3A4 (CYP3A4 [2]): Neither M1 nor M4 mutant displayed alterations; Progesterone hydroxylase activity relative to wild-type CYP3A4 (CYP3A4 [3]): < 50%; 7-BFC debenzylase activity relative to CYP3A4 (CYP3A4 [4]): < 50%
WT: wild-type CYP3A4 protein encoded by pSE3A4H vector, identical to that found in most Caucasians, expressed in E. coli [reference compound] |  | 0.2 nmol product/min/nmol protein | 9.3^a nmol product/min/nmol protein | 0.4 nmol product/min/nmol protein | 3.0 nmol product/min/nmol protein | 41.6^a nmol product/min/nmol protein | 1.2 nmol product/min/nmol protein | 12.1^a nmol product/min/nmol protein | 1.7 nmol product/min/nmol protein | 5.0 | 32.1^a nmol product/min/nmol protein | 6.4 nmol product/min/nmol protein | 6.5^a nmol product/min/nmol protein | 7.1 | Band in immunoblot (CYP3A4 [5]): Bands of the expected size
M6: CYP3A4 protein variant L373F (g.21896C>T, exon 11) [Mutant M6] | strikingly altered testosterone hydroxylase metabolite profile | 3.5 nmol product/min/nmol protein and 2.8 nmol product/min/nmol protein | 10.1 nmol product/min/nmol protein and 8.6 nmol product/min/nmol protein | 1.7 nmol product/min/nmol protein and 1.3 nmol product/min/nmol protein | 29.2, nmol product/min/nmol protein and 36.3 nmol product/min/nmol protein | 45.3 nmol product/min/nmol protein and 58.8 nmol product/min/nmol protein | 5.9 nmol product/min/nmol protein and 7.7 nmol product/min/nmol protein | 15.8, nmol product/min/nmol protein and 12.3 nmol product/min/nmol protein | 2.1 nmol product/min/nmol protein and 1.6 nmol product/min/nmol protein | 7.9 and 7.7 | 40.1 nmol product/min/nmol protein and 49.8 nmol product/min/nmol protein | 5.1 nmol product/min/nmol protein and 6.5 nmol product/min/nmol protein | 4.5 nmol product/min/nmol protein and 5.2 nmol product/min/nmol protein | 7.5 and 7.7 | 
M5: CYP3A4 protein variant T363M (g.21867C>T, exon 11) [Mutant M5] |  | <0.1, <0.1 nmol product/min/nmol protein | 5.1^c nmol product/min/nmol protein | 0.1 nmol product/min/nmol protein | 3.6 nmol product/min/nmol protein | 19.5^c nmol product/min/nmol protein | 0.7 nmol product/min/nmol protein | 5.9^c nmol product/min/nmol protein | 0.6 nmol product/min/nmol protein | 5.4 | 16.6^c nmol product/min/nmol protein | 3.1 nmol product/min/nmol protein | 2.9^c nmol product/min/nmol protein | 9.8 | Testosterone hydroxylase activity compared with wild-type protein, in words (CYP3A4 [6]): approximately half that of wild-type protein; Effect of mutation on expression of CYP3A4 holoenzyme (conclusion) (CYP3A4 holoenzyme): diminishes; Stability of the protein (consistency of P450 measurements in multiple determinations) (CYP3A4 holoenzyme): some instability; Expression level of P450 holoenzyme relative to CYP3A4 (CYP3A4 holoenzyme; E. coli expression, reduced CO difference spectra): less than 10%; Progesterone hydroxylase activity compared with wild-type protein, in words (CYP3A4 [7]): approximately half that of wild-type protein; 7-BFC debenzylase activity compared with wild-type protein, in words (CYP3A4 [8]): approximately half that of wild-type protein
